Measurements taken from patent US20140348834A1 (published 2014).
Where two headings read alike, the source gives them in different places.

Tests used:
human IL-17A [1] = target: T1, human IL-17A (human, UniProt Q16552 24-155); assay: cell-based or functional assay
human IL-17A [2] = target: T1, human IL-17A; assay: hIL17A ELISA
cynomolgus monkey IL-17A [3] = target: T2, cynomolgus monkey IL-17A (cynomolgus monkey, UniProt A0A2K5TTB0 24-155); assay: cell-based or functional assay
human IL-17A [4] = target: T1, human IL-17A; assay: cell-based or functional assay; remark: listed apart in the source
mouse IL-17A = target: T3, mouse IL-17A (mouse, UniProt Q62386 26-158, limits assumed); assay: SPR (Biacore 3000), antibody captured by anti-Fc, antigen in solution;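 also: purified recombinant IL-17 antigens flowed over captured antibodies in HBS-EP buffer, global Langmuir one-to-one fit of association and dissociation phases, KD derived from koff over kon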
T3 construct: Purified recombinant protein in SPR; also called MuIL-17A; murine IL-17A
T3 sequence (looked up): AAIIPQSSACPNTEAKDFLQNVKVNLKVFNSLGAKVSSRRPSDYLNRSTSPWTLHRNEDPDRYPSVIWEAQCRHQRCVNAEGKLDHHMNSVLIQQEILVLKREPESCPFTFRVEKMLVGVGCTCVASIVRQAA
Method: (§1) The binding of antibodies to purified recombinant human, cyno, rat, mouse, rabbit IL-17 and human IL-17A/F were determined by surface plasmon resonance-based measurements with a Biacore® 3000 instrument (Biacore® AB, Uppsala, Sweden) using running HBS-EP (10 mM HEPES [pH 7.4], 150 mM NaCl, 3 mM EDTA, and 0.005% surfactant P20) at 25° C. […] Approximately 5000 RU of goat anti-mouse or anti-human IgG (Fcγ) fragment specific polyclonal antibody (Pierce Biotechnology Inc, Rockford, Ill.) diluted in 10 mM sodium acetate (pH 4.5) was directly immobilized across a CM5 research grade biosensor chip using a standard amine coupling kit according to manufacturer's instructions and procedures at 25 μg/ml. Unreacted moieties on the biosensor surface were blocked with ethanolamine. Modified carboxymethyl dextran surface in flowcell 2 and 4 was used as a reaction surface. Unmodified carboxymethyl dextran without goat anti-mouse or anti-human IgG in flow cell 1 and 3 was used as the reference surface. For kinetic analysis, rate equations derived from the 1:1 Langmuir binding model were fitted simultaneously to association and dissociation phases of all eight injections (using global fit analysis) with the use of Biaevaluation 4.0.1 software. Purified antibodies were diluted in HEPES-buffered saline for capture across goat anti-mouse or anti-human IgG specific reaction surfaces. Antibodies to be captured as a ligand (25 μg/ml) were injected over reaction matrices at a flow rate of 5 μl/min. The association and dissociation rate constants, kon (unit M-1s-1) and koff (unit s-1) were determined under a continuous flow rate of 25 μl/min. Rate constants were derived by making kinetic binding measurements at ten different antigen concentrations ranging from 10 nM to 200 nM. The equilibrium dissociation constant (unit M) of the reaction between antibodies and recombinant purified IL-17 antigens was then calculated from the kinetic rate constants by the following formula: KD=koff/kon. Binding was recorded as a function of time and kinetic rate constants are calculated. In this assay, on-rates as fast as 10⁶ M⁻¹ s⁻¹ and off-rates as slow as 10⁻⁶ s⁻¹ can be measured.

rat IL-17A = target: T4, rat IL-17A (rat, UniProt Q61453 18-150, limits assumed); assay: as above
T4 construct: Purified recombinant protein in SPR
T4 sequence (looked up): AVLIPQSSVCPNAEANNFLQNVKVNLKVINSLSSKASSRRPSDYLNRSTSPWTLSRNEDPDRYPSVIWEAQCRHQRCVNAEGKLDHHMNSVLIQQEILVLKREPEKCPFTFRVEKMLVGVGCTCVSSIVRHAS
Method: as §1

cynomolgus monkey IL-17A [5] = target: T2, cynomolgus monkey IL-17A; assay: as above
Method: as §1

human IL-17A [6] = target: T1, human IL-17A; assay: as above
Method: as §1

human IL-17A/F = target: T5, human IL-17A/F (human, UniProt Q16552 24-155; Q96PD4 31-163); assay: as above
T5 construct: Recombinant; biotinylated in the ELISA; also called hIL-17A/F; HuIL-17A/F
T5 sequence (Q16552 24-155, chain 1 of 2): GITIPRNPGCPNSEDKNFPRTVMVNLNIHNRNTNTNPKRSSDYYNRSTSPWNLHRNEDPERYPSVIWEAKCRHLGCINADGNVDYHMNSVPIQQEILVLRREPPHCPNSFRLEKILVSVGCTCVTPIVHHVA
T5 sequence (Q96PD4 31-163, chain 2 of 2): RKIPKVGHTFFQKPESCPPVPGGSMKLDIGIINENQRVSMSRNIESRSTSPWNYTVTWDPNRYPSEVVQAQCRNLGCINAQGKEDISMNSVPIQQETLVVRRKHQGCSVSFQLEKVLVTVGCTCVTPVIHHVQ
Method: as §1

T1 sequence (Q16552 24-155): as the sequence (Q16552 24-155, chain 1 of 2) above
T2 sequence (A0A2K5TTB0 entry or part of it): as the sequence (Q16552 24-155, chain 1 of 2) above, with T3A, P8S, N34S, I77V, N78K, P104R counted along it

Binder | Potency (pM), IL-17-driven IL-6 production in HS27 cells (human IL-17A [1]) | EC50 (human IL-17A [2]) | Potency (pM), IL-17-driven IL-6 production in HS27 cells (cynomolgus monkey IL-17A [3]) | Potency (pM), IL-17-driven IL-6 production in HS27 cells (human IL-17A [4]) | Kd (mouse IL-17A) | koff (mouse IL-17A) | kon (mouse IL-17A) | Kd (rat IL-17A) | koff (rat IL-17A) | kon (rat IL-17A) | Kd (cynomolgus monkey IL-17A [5]) | koff (cynomolgus monkey IL-17A [5]) | kon (cynomolgus monkey IL-17A [5]) | Kd (human IL-17A [6]) | koff (human IL-17A [6]) | kon (human IL-17A [6]) | Kd (human IL-17A/F) | koff (human IL-17A/F) | kon (human IL-17A/F)
ML109-7D7 (antibody, V domains shown) VH: QVQLQQSGAELVRPGTSVTLSCKASGYRFTDYEIHWIKQTPAQVLEWIGVTDPESGGTLHNPKFDGKATLTADKSSRTAYMELRSLTSEDSAVYYCTRYYKYESFYGMDYWGQGTSVTVSS VL: QIVLTQSPAIMSAFPGEKVTMTCSASSSISYMCWYQQKPGTSPKRWICDTSKLASGVPVRFSGSGSGTSYSLTINSMETEDAATYYCQQRSSYPWTFGGGTKVEIKR | 81 pM |  |  |  |  |  |  |  |  |  |  |  |  |  |  |  |  |  | 
ML109-8B12 (antibody, V domains shown) VH: QVQLKESGPGLVAPSQSLSITCTISGFSLTSYGVHWVRQPPGKGLEWLVVIWSDGTTTYNSALKSRLSITRDNSKSQVFLKMNSLQTDDTAIYYCARDSTWDYYYTMDYWGQGTPVTVSS VL: DVVMTQTPLSLPVSLGDQASISCRSSQSLVHSNGNTYLHWYLQKPGQSPKLLIYKVSNRFSGVPDRFSGSGSGTDFTLKISRVEAEDLGVYFCSQSTHVYTFGGGTKLEIKR | 137 pM |  |  |  |  |  |  |  |  |  |  |  |  |  |  |  |  |  | 
IL17-h5C5.20 (antibody, V domains shown, IgG; constant regions not specified) VH: EVQLVQSGAEVKKPGASVKVSCKASGYTFTDYEFHWVRQAPGQGLEWMGVIHPGNGGTAYNQNFRDRVTITADKSTSTAYMELSSLRSEDTAVYYCARFLTYEGYFDYWGQGTLVTVSS VL: NIVMTQSPATLSVSPGERATLSCKASQSVSIDVGWFQQKPGQSPRLLIYHASNRYTGVPARFSGSGSGTDFTLTISSLQPEDFAVYFCQQDYSSPYTFGQGTKLEIKR |  | 0.03 nM | 13 pM | 12 pM |  |  |  |  |  |  |  |  |  |  |  |  |  |  | 
IL17-h5C5.15 (antibody, V domains shown, IgG; constant regions not specified; also called h5C5.15 (VH.1b-Vk.3a)) VH: EVQLVQSGAEVKKPGASVKVSCKASGYTFTDYEFHWVRQAPGQGLEWIGVIHPGNGGTAYNQNFRDRATLTADKSTSTAYMELSSLRSEDTAVYYCTRFLTYEGYFDYWGQGTLVTVSS VL: EIVMTQSPATLSVSPGERATLSCKASQSVSIDVGWFQQKPGQSPRLLIYHASNRYTGVPARFSGSGSGTDFTLTISSLQPEDFAVYFCQQDYSSPYTFGQGTKLEIKR |  | 0.02 nM | 12 pM | 13 pM | 2.83 nM | 0.000557 s⁻¹ | 197000 M⁻¹ s⁻¹ | 5.8 nM | 0.0036 s⁻¹ | 621000 M⁻¹ s⁻¹ | 0.358 nM | 0.000216 s⁻¹ | 603000 M⁻¹ s⁻¹ | 0.458 nM | 0.000437 s⁻¹ | 954000 M⁻¹ s⁻¹ | 1.43 nM | 0.00112 s⁻¹ | 781000 M⁻¹ s⁻¹
IL17-h5C5.21 (antibody, V domains shown, IgG; constant regions not specified; also called h5C5.21 (VH.1b-Vk.3c)) VH: EVQLVQSGAEVKKPGASVKVSCKASGYTFTDYEFHWVRQAPGQGLEWIGVIHPGNGGTAYNQNFRDRATLTADKSTSTAYMELSSLRSEDTAVYYCTRFLTYEGYFDYWGQGTLVTVSS VL: NIVMTQSPATLSVSPGERATLSCKASQSVSIDVGWFQQKPGQSPRLLIYHASNRYTGVPARFSGSGSGTDFTLTISSLQPEDFAVYFCQQDYSSPYTFGQGTKLEIKR |  | 0.03 nM | 9 pM | 9 pM | 3.06 nM | 0.000524 s⁻¹ | 171000 M⁻¹ s⁻¹ | 5.97 nM | 0.0024 s⁻¹ | 402000 M⁻¹ s⁻¹ | 0.406 nM | 0.00024 s⁻¹ | 591000 M⁻¹ s⁻¹ | 0.729 nM | 0.000395 s⁻¹ | 542000 M⁻¹ s⁻¹ | 1.39 nM | 0.00111 s⁻¹ | 801000 M⁻¹ s⁻¹
IL17-h5C5.14 (antibody, V domains shown, IgG; constant regions not specified; also called h5C5.14 (VH.1-Vk.3a)) VH: EVQLVQSGAEVKKPGASVKVSCKASGYTFTDYEFHWVRQAPGQGLEWMGVIHPGNGGTAYNQNFRDRVTITADKSTSTAYMELSSLRSEDTAVYYCARFLTYEGYFDYWGQGTLVTVSS VL: EIVMTQSPATLSVSPGERATLSCKASQSVSIDVGWFQQKPGQSPRLLIYHASNRYTGVPARFSGSGSGTDFTLTISSLQPEDFAVYFCQQDYSSPYTFGQGTKLEIKR |  | 0.03 nM | 16 pM | 18 pM | 1.86 nM | 0.000494 s⁻¹ | 266000 M⁻¹ s⁻¹ | 5.56 nM | 0.00398 s⁻¹ | 716000 M⁻¹ s⁻¹ | 0.245 nM | 0.000229 s⁻¹ | 934000 M⁻¹ s⁻¹ | 0.363 nM | 0.000472 s⁻¹ | 1.3e+06 M⁻¹ s⁻¹ | 1.11 nM | 0.00119 s⁻¹ | 1.07e+06 M⁻¹ s⁻¹
ML109-1D8 (antibody, V domains shown) VH: QVQLQQSGAELVRPGASVKLSCKASGYTFSDYEMHWVKQTPVHGLEWIGVIHPGNGGTAYNQKFRDKATLTADKSSTTAYMELSSLTSEDSAVYYCIRFLTYEGYFDYWGQGTTLTVSS VL: SIVMTQTPKFLLVSAGDRVTITCKASQSVNNDVAWFQHKPGQSPKLLINYASNRYTGVPDRFTGSGYGTDFTFTISTVQSEDLAIYFCQQDYGSPYTFGGGTTLEIKR | 62 pM |  |  |  |  |  |  |  |  |  |  |  |  |  |  |  |  |  | 
